Source: doi:10.1101/2025.10.27.684894, “Alternative splicing of synaptotagmin 7 regulates oligomerization and short-term synaptic plasticity” (bioRxiv, 2025)

Target: T1, Halo-tagged α-syt7cyto (cytoplasmic domain of synaptotagmin 7 α, immobilised on HaloLink resin) (mouse, UniProt Q9R0N7 38-403)
T1 construct: synaptotagmin 7, α splice variant, cytoplasmic domain; The Halo-tagged construct is not described under DNA constructs; The sentence on syt1-fl says only 'immobilized syt7'; also called immobilized syt7; source: purified Halo-tagged protein; recombinant proteins were expressed in E. coli BL21(DE3)
T1 sequence (Q9R0N7 38-403): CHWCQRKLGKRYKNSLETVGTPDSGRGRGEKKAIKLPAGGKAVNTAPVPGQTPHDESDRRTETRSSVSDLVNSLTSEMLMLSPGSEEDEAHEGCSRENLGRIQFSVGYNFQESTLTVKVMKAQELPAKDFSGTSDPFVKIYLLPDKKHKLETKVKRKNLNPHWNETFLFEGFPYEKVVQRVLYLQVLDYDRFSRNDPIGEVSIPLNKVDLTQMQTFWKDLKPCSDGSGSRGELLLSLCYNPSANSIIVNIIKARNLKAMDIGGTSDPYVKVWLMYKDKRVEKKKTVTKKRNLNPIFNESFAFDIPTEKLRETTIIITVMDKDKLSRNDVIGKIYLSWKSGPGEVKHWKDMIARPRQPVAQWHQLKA
Test: pull-down; Halo-tagged bait immobilised on HaloLink resin (7 μM bait), prey syt1-fl in DOPC proteoliposomes; 25 mM HEPES pH 7.4, 100 mM KCl, 0.2 mM EGTA or 1.2 mM Ca2+; 1 h at 25 °C; supernatants analysed by SDS-PAGE and Western blot
Conditions: both partners purified

- ratio of binding in Ca2+ to binding in EGTA: 1.46 ± 0.15
B1: syt1-fl (full-length synaptotagmin 1, reconstituted into liposomes) (natural protein, rat, UniProt P21707 1-421, looked up)
chain: MVSASHPEALAAPVTTVATLVPHNATEPASPGEGKEDAFSKLKQKFMNELHKIPLPPWALIAIAIVAVLLVVTCCFCVCKKCLFKKKNKKKGKEKGGKNAINMKDVKDLGKTMKDQALKDDDAETGLTDGEEKEEPKEEEKLGKLQYSLDYDFQNNQLLVGIIQAAELPALDMGGTSDPYVKVFLLPDKKKKFETKVHRKTLNPVFNEQFTFKVPYSELGGKTLVMAVYDFDRFSKHDIIGEFKVPMNTVDFGHVTEEWRDLQSAEKEEQEKLGDICFSLRYVPTAGKLTVVILEAKNLKKMDVGGLSDPYVKIHLMQNGKRLKKKKTTIKKNTLNPYYNESFSFEVPFEQIQKVQVVVTVLDYDKIGKNDAIGKVFVGYNSTGAELRHWSDMLANPRRPIAQWHTLQVEEEVDAMLAVKK
notes: synaptotagmin 1, rat cDNA from T. C; Sudhof (Perin et al., 1990); the D374 mutation of that cDNA was corrected to glycine, so residue 374 is G; also called SUMO-syt1-fl; source: E. coli BL21(DE3), purified (with 0.9% CHAPS; cleaved from the beads with SUMO protease), reconstituted into DOPC proteoliposomes
